Test results: IntAct's records for PubMed 21666598

B1: Shugoshin 2 (Homo sapiens), Q562F6 (parent)
chain: MECPVMETGSLFTSGIKRHLKDKRISKTTKLNVSLASKIKTKILNNSSIFKISLKHNNRALAQALSREKENSRRITTEKMLLQKEVEKLNFENTFLRLKLNNLNKKLIDIEALMNNNLITAIEMSSLSEFHQSSFLLSASKKKRISKQCKLMRLPFARVPLTSNDDEDEDKEKMQCDNNIKSKTLPDIPSSGSTTQPLSTQDNSEVLFLKENNQNVYGLDDSEHISSIVDVPPRESHSHSDQSSKTSLMSEMRNAQSIGRRWEKPSPSNVTERKKRGSSWESNNLSADTPCATVLDKQHISSPELNCNNEINGHTNETNTEMQRNKQDLPGLSSESAREPNAECMNQIEDNDDFQLQKTVYDADMDLTASEVSKIVTVSTGIKKKSNKKTNEHGMKTFRKVKDSSSEKKRERSKRQFKNSSDVDIGEKIENRTERSDVLDGKRGAEDPGFIFNNEQLAQMNEQLAQVNELKKMTLQTGFEQGDRENVLCNKKEKRITNEQEETYSLSQSSGKFHQESKFDKGQNSLTCNKSKASRQTFVIHKLEKDNLLPNQKDKVTIYENLDVTNEFHTANLSTKDNGNLCDYGTHNILDLKKYVTDIQPSEQNESNINKLRKKVNRKTEIISGMNHMYEDNDKDVVHGLKKGNFFFKTQEDKEPISENIEVSKELQIPALSTRDNENQCDYRTQNVLGLQKQITNMYPVQQNESKVNKKLRQKVNRKTEIISEVNHLDNDKSIEYTVKSHSLFLTQKDKEIIPGNLEDPSEFETPALSTKDSGNLYDSEIQNVLGVKHGHDMQPACQNDSKIGKKPRLNVCQKSEIIPETNQIYENDNKGVHDLEKDNFFSLTPKDKETISENLQVTNEFQTVDLLIKDNGNLCDYDTQNILELKKYVTDRKSAEQNESKINKLRNKVNWKTEIISEMNQIYEDNDKDAHVQESYTKDLDFKVNKSKQKLECQDIINKHYMEVNSNEKESCDQILDSYKVVKKRKKESSCKAKNILTKAKNKLASQLTESSQTSISLESDLKHITSEADSDPGNPVELCKTQKQSTTTLNKKDLPFVEEIKEGECQVKKVNKMTSKSKKRKTSIDPSPESHEVMERILDSVQGKSTVSEQADKENNLENEKMVKNKPDFYTKAFRSLSEIHSPNIQDSSFDSVREGLVPLSVSSGKNVIIKENFALECSPAFQVSDDEHEKMNKMKFKVNRRTQKSGIGDRPLQDLSNTSFVSNNTAESENKSEDLSSERTSRRRRCTPFYFKEPSLRDKMRR

Variants of: B1
Conditions: with pp1a_human PPP1CA

Q: With N58I as the variant, how does the “effect of a mutation on the interaction” value read?
A: The value was “disrupting interaction”.

Variants of: B1
Conditions: with md2l1_human MAD2L1, Q13257
Chain of md2l1_human MAD2L1, Q13257 (Q13257 whole entry): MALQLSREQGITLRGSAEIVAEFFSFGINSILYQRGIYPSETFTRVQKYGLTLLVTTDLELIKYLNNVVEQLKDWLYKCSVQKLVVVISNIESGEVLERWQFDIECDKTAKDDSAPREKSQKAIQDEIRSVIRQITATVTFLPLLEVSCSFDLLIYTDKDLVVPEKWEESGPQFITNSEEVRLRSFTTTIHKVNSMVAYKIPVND

Q: With R153A as the variant, how does the “effect of a mutation on the interaction” value read?
A: The value was “disrupting interaction”.
